This assay concerns the target MAGI-1 PDZ3 domain, Cy3-labelled, tag-free. Briefly: FRET or BRET. For orientation: In BRET a luciferase serves as donor, and the signal depends on an acceptor being close.

For one molecule, Kd results are on record in PMC4359947.

Ends that are not written are not given here.

B1: CAR (CAR^Ex7) C-terminus, Cy5-labelled, tag-free (peptide)
peptide: GAIPVMIPAQSKDGSIV
modifications: also: Cy5 label (approximately 1 dye/peptide), site not given here
For the molecule B1, the Kd (commonly the concentration at which binding is half-saturated) is 2 nM. In other words, the single-digit nanomolar range.
